Experimental findings from US20160108110A1 (Novartis, published 2016) are described below.

The Kd is the concentration at which binding is half-saturated. Read a high Kd as a looser complex. The term koff denotes the rate constant with which the complex falls apart. High values mean fast dissociation, low ones slow dissociation. A word on the kon: it is the rate constant with which the complex forms. Lower therefore signals slower complex formation.

For test [1], the target named is T1, Human ANGPTL3(17-460)-FLAG-His-Avi (human, UniProt Q9Y5C1 17-460, biotin on the C-terminal Avi tag).
T1 construct: also called full length human ANGPTL3; hANGPTL3
T1 sequence: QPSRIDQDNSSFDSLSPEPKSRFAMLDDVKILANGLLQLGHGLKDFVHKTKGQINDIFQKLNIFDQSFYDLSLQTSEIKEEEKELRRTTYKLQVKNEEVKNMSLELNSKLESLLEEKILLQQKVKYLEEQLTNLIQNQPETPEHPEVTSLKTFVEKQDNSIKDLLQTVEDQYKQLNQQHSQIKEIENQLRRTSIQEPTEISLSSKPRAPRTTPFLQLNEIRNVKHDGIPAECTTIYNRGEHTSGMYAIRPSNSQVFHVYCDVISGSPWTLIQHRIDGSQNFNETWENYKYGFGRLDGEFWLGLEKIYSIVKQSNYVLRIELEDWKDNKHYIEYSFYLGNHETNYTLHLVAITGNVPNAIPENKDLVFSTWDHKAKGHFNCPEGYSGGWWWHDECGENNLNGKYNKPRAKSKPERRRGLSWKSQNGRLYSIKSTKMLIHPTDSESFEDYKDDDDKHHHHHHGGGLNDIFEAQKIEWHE
As to the kind of experiment: direct ELISA on streptavidin-coated MSD plate: biotinylated antigen immobilised at 1 nM, antibody at 1 nM, detection with Sulfo-tagged goat anti-human IgG. As to the method:
Direct ELISA assays were conducted to characterize antibody binding specificity of selected antibodies of the invention. The assay was performed as follows. A 384-well streptavidin-coated Meso Scale Discovery (MSD) plate was blocked by incubating the plate with 50 μL Blocking Buffer (PBS, pH 7.4, 5% w/v bovine serum albumin) per well at 22° C. for 1 hour with constant shaking (600 rpm). The blocked MSD plate was then washed 3 times with Wash Buffer (PBS, pH 7.4 and 0.05% v/v Tween-20) using a plate washer (BioTek). Following washing, biotinylated human ANGPTL4 proteins diluted in Assay Buffer (PBS, pH 7.4 without CaCl₂ or MgCl₂, 0.5% w/v fatty acid-free bovine serum albumin and 0.02% v/v Tween-20) were immobilized on the surface by incubation at 1 nM concentration (15 μL per well) at 22° C. for one hour: full length human ANGPTL4 (hANGPTL4), human ANGPTL4 coiled-coil domain (hANGPTL4-CCD) and full length human ANGPTL3 (hANGPTL3). The plate was then washed 3 times as described earlier. Antibody diluted to 1 nM concentration in Assay Buffer was then applied to the MSD plate […], and the plate was incubated for 1 hour at 22° C. with constant shaking (600 rpm). Bound antibodies were detected by adding 15 μL per well of a 1:500 dilution of Sulfo-tagged goat anti-human IgG. The plate was then incubated for one hour with constant shaking (600 rpm). The plate was washed 3 times, and then 15 μL/well of 1×MSD read buffer T was added and the plate was developed using a Sector Imager 6000 (Meso Scale Discovery). The data were transferred to Microsoft Excel for analysis and plotted using GraphPad Prism v6. […] An ANGPTL3-specific reference antibody was used as a positive control for the ANGPTL3 binding assay (FIG. 2).
On the technique in general: An ELISA detects its analyte on a solid surface through an enzyme-linked reagent.

In test [2] the target is T2, Human ANGPTL4(26-406)-FLAG-His6-Avi (human, UniProt Q9BY76 24-406, biotin on the C-terminal Avi tag in the biotinylated preparations (immobilised form in SET, ELISA and Octet)).
T2 construct: also called full-length human ANGPTL4; hANGPTL4
T2 sequence: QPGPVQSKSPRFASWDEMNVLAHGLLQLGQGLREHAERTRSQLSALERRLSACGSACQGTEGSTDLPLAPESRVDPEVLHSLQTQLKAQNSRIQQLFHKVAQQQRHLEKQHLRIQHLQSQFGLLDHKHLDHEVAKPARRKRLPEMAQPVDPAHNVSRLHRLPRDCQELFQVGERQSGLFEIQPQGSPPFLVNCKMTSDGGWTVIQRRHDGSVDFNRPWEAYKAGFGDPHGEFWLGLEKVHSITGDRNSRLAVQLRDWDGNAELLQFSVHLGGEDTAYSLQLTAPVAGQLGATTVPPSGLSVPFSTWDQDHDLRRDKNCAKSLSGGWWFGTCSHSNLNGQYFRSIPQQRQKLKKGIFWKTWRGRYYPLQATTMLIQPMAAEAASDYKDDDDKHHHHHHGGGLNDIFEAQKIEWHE
As to the kind of experiment: SET assay (solution equilibrium titration, MSD), IgG. On the procedure:
SET assays were performed as follows. In a 96-well polypropylene plate, a constant concentration of ANGPTL4 antibody was mixed with different concentrations of non-biotinylated human, cyno, mouse, or rat full-length ANPGLT4 protein, or human ANGPTL4 N-terminal domain protein (5-fold serial dilution) and incubated at 22° C. for 14 hours with constant shaking (300 rpm). On a pre-blocked 384-well streptavidin-coated Meso Scale Discovery (MSD) plate biotinylated ANGPTL4 (full-length human, cyno, mouse, or rat ANGPTL4, or human ANGPTL4 N-terminal domain) protein (1 nM, 15 μL per well) was immobilized and washed thereafter.
The equilibrium binding reactions (15 μL per well) were applied to the MSD plate with immobilized ANGPTL4 and incubated for 20 min at 22° C. The unbound material was removed by washing the plate 3 times with wash buffer, and the captured antibody was detected by adding Sulfo-tagged goat anti-human IgG (Meso Scale Discovery). After washing MSD read buffer T was added and the plate was developed using a Sector Imager 6000 (Meso Scale Discovery). The data were transferred to Microsoft Excel for analysis and plotted using GraphPad Prism v6. The KD values were determined by fitting the data to the following equation: […]
where Bₘₐₓ is the signal when no ANGPTL4 protein is present in solution, CAb is the constant concentration of ANGPTL4 antibody in solution, CAg is the concentration of ANGPTL4 in solution, and KD is the equilibrium dissociation constant.

For test [3], the target named is T2, Human ANGPTL4(26-406)-FLAG-His6-Avi. As to the kind of experiment: cell-based or functional assay.
The target is the same in test [4]. In words: ForteBio Octet, biotinylated antigen on streptavidin sensor, antibody in solution. As to the method:
Dissociation constants (KD) were determined for selected antibodies of the invention by using an Octet (ForteBio) kinetic binding assay. ForteBio 10× Kinetics Buffer (ForteBio, catalog number 18-5032) was diluted 10-fold with DPBS (Life Technologies, catalog number 14190-136), and the resulting solution was added (0.2 ml per well) to a 96-well plate (Greiner, catalog number 65520). Streptavidin sensors (ForteBio, catalog number 18-5020) were immersed in the solution and equilibrated for at least 10 min at room temperature. In a second 96-well plate (Greiner, catalog number 65520), sensors were washed in 1× Kinetics buffer, and then immersed in 200 ul of 25 nM biotinylated human ANGPTL4 or a biotinylated reference protein (for background substraction) for 1000 sec […] at room temperature. The sensors were then washed in 1× Kinetics buffer for 120 sec, and immersed in 200 ul of ANGPTL4 antibody diluted in 1× Kinetics buffer at various concentrations (serial 2-fold dilutions ranging from 25 nM to 0.4 nM), and antibody association was monitored for 480 seconds. The sensors were then transferred to a well containing 200 ul 1× Kinetics buffer, and antibody dissociation was monitored for 1200 seconds. Background-corrected association and dissociation curves were globally fitted by Octet Software (ForteBio) to generate association (kₒₙ) and dissociation (koff) rate constants, which in turn were used to calculate equilibrium dissociation constants (KD).
A general note: Biolayer interferometry detects binding as a change in optical thickness at a sensor tip.

Test [5] has the same target. In words: cell-based or functional assay. The source holds these as a separate data set.
Test [6] has the same target. As to the kind of experiment: cell-based or functional assay. This is another data set of the same source.

B1: MOR021795 (antibody, human IgG1, lambda, V domains shown)
VH: QVQLVQSGAEVKKPGSSVKVSCKASGGTFNSYAISWVRQAPGQGLEWMGGIIPLFGFANYAQKFQGRVTITADESTSTAYMELSSLRSEDTAVYYCARESYDPYAFDVWGQGTLVTVSS
VL: DIELTQPPSVSVSPGQTASITCSGDNLGKYSASWYQQKPGQAPVLVIHQDNNRPSGIPERFSGSNSGNTATLTISGTQAEDEADYYCASRAHSMHVVFGGGTKLTVLG
notes: human IgG1
For the molecule B1, the binding result in test [1] is reported as “no binding (tested: 1 nM)”. This molecule also displayed an equilibrium dissociation constant (Kd) in test [2] of 0.036 nM. For the same molecule, the “Reversal of human ANGPTL4 inhibition of human LPL EC50” value in test [3] is 12 nM. In test [4], this molecule displayed an equilibrium dissociation constant (Kd) of 0.304 nM, a dissociation rate constant (koff) of 7.4e-05 s⁻¹ and a kon of 240000 M⁻¹ s⁻¹.

B2: MOR021800 (antibody, human IgG1, lambda, V domains shown)
VH: QVQLVQSGAEVKKPGESLKISCKGSGYSFSTYWISWVRQMPGKGLEWMGIIDPSNSDTRYSPSFQGQVTISADKSISTAYLQWSSLKASDTAMYYCARVYGYVYMDVWGQGTLVTVSS
VL: DIELTQPPSVSVSPGQTASITCSGDNLGKKYAYWYQQKPGQAPVLVIYDKTKRPSGIPERFSGSNSGNTATLTISGTQAEDEADYYCASYDWYSSSYVFGGGTKLTVLG
notes: human IgG1
Consider B2, for which, in test [1], the binding result was “no binding (tested: 1 nM)”. The dissociation constant Kd in test [2] came to 0.017 nM. Further, the “Reversal of human ANGPTL4 inhibition of human LPL EC50” value in test [3] is 1 nM. For the same molecule, in test [4], the Kd amounted to 0.134 nM, the off-rate (koff) came to 5.6e-05 s⁻¹ and the association rate constant (kon) amounted to 420000 M⁻¹ s⁻¹. Moreover, in test [5], the “EC50 (read off the curve) [1(D]” value is roughly 0.5 nM.

B3: MOR021823 (antibody, human IgG1, kappa, V domains shown)
VH: QVQLLESGGGLVQPGGSLRLSCAASGFTFSSYYLHWVRQAPGKGLEWVSYISGDGSSTYYADSVKGRFTISRDNSKNTLYLQMNSLRAEDTAVYYCARERSYAHDHWGQGTLVTVSS
VL: DIQMTQSPSSLSASVGDRVTITCRASQDIYIDLNWYQQKPGKAPKLLIYAASKLQSGVPSRFSGSGSGTDFTLTISSLQPEDFATYYCQQGYFLPQTFGQGTKVEIKR
notes: human IgG1
On to B3, for which, in test [1], the binding result is “no binding (tested: 1 nM)”. Moreover, the Kd in test [2] worked out at 0.009 nM. The “Reversal of human ANGPTL4 inhibition of human LPL EC50” value in test [3] worked out at 1 nM. Further, in test [4], the Kd is 0.047 nM, the koff came to 2.5e-05 s⁻¹ and the on-rate constant (kon) was found to be 530000 M⁻¹ s⁻¹. The “EC50 (read off the curve) [1(E]” value in test [6] was roughly 0.5 nM.

B4: MOR021830 (antibody, human IgG1, kappa, V domains shown)
VH: QVQLLESGGGLVQPGGSLRLSCAASGFTFSSYWMHWVRQAPGKGLEWVSGISYDGSSTNYADSVKGRFTISRDNSKNTLYLQMNSLRAEDTAVYYCARDSYIYDLHWGFDNWGQGTLVTVSS
VL: DIQMTQSPSSLSASVGDRVTITCRASQDISSYLNWYQQKPGKAPKLLIYAASRLQSGVPSRFSGSGSGTDFTLTISSLQPEDFATYYCQQSYTHPYTFGQGTKVEIKR
notes: human IgG1
Consider B4, for which, in test [1], the binding result was “no binding (tested: 1 nM)”. This molecule also displayed a Kd in test [2] of 0.026 nM. Moreover, the “Reversal of human ANGPTL4 inhibition of human LPL EC50” value in test [3] amounted to 4 nM. In test [4], this molecule had a Kd of 0.069 nM, an off-rate constant (koff) of 1.5e-05 s⁻¹ and a kon of 210000 M⁻¹ s⁻¹. Further, the “EC50 (read off the curve) [1(F]” value in test [6] was roughly 1 nM.
